Assay [1] deals with cone-specific G-protein transducin alpha subunit employed as a Gtα/Giα chimera, non-myristoylated (European robin). Put plainly: SPR; Biacore 3000, CM5 chip, amine coupling; Gtα/Giα immobilised, ErCry4a 5-100 nM (and 500 nM) injected; global fit with a two-state-reaction model; 10 mM HEPES/NaOH pH 7.4, 150 mM NaCl, 10 mM MgCl2, 0.005% Tween-20, 3.4 mM EDTA. For orientation: In SPR one partner is held on a chip, and binding of the other changes the refractive index at the surface.

In assay [2] the target is Gtα-EYFP (cone transducin alpha subunit, GNAT2, with C-terminal EYFP) (European robin). Put plainly: FRET or BRET; acceptor photobleaching FRET in transiently transfected, fixed QNR/K2 quail neuroretina cells; donor mTurquoise on ErCry4a, acceptor EYFP; confocal microscope, FRET efficiency (Dpost - Dpre)/Dpost.

In assay [1], “European robin cryptochrome 4a (ErCry4a), purified recombinant (natural protein)” came in with a Kd of 19.8 nM, a ka1 (two-state-reaction model) of 221000 M⁻¹ s⁻¹ and a kd1 (two-state-reaction model) of 0.00438 s⁻¹.

Turning to “mTurquoise-ErCry4a (N-terminally tagged ErCry4a) (natural protein)”, the mean FRET efficiency in assay [2] is 24.5%.

Usually Kd stands for the concentration at which binding is half-saturated. Read a low Kd as a tighter complex.

The values are drawn from article PMC11569197.
